Measured values published in patent US20120219562A1 (AbbVie / Abbott, published 2012).
Where “and” joins values, the source holds several entries; their conditions need not be identical. Identical values can stand only once.

Assays:
human interleukin 12 [1] = target: T1, human interleukin 12 (human, UniProt P29459 23-219; P29460 23-328); test: SPR (BIAcore)
T1 construct: heterodimer of p35 and p40 linked by a disulfide bridge; also called hIL-12; IL-12
T1 sequence (looked up) 1: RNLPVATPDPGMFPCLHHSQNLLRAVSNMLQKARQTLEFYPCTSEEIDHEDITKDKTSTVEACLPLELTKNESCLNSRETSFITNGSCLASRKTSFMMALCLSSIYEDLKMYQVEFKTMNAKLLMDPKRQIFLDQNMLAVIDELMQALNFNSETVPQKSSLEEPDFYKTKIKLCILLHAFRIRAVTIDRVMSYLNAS
T1 sequence (looked up) 2: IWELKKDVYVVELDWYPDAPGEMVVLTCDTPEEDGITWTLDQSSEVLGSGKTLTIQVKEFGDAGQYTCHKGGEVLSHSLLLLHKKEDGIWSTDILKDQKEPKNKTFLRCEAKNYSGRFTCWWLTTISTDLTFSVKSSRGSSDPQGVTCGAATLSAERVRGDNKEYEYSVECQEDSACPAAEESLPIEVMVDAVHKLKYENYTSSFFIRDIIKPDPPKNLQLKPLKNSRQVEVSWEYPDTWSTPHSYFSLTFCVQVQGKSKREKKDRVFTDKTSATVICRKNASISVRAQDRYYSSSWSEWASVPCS

human interleukin 12 [2] = target: T1, human interleukin 12; test: RB assay (IL-12 receptor binding)
human interleukin 12 [3] = target: T1, human interleukin 12; test: cell-based or functional assay
[4] = target: T2, human interleukin 12 (recombinant human IL-12, p70 heterodimer) (human, UniProt P29459 23-219; P29460 23-328); test: cell-based or functional assay
T2 sequence (looked up) 1: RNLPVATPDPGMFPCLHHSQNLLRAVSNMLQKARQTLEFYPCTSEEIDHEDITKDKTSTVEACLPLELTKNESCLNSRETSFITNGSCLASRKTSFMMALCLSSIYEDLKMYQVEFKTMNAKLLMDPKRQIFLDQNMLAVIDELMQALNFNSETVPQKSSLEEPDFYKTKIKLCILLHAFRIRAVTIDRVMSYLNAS
T2 sequence (looked up) 2: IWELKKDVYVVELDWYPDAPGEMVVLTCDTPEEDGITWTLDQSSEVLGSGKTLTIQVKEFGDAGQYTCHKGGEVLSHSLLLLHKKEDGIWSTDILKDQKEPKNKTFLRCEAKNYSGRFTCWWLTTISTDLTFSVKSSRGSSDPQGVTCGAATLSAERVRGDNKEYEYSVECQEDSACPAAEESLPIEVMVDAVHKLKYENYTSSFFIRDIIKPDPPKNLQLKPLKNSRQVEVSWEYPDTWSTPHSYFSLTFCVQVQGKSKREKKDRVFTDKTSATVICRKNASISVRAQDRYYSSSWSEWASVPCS

[5] = target: T2, human interleukin 12 (recombinant human …); test: SPR (BIAcore), off-rate from human IL-12
[6] = target: T2, human interleukin 12 (recombinant human …); test: cell-based or functional assay; remark: listed apart in the source
[7] = target: T2, human interleukin 12 (recombinant human …); test: RB assay: inhibition of IL-12 binding to its receptor
[8] = target: T3, human interleukin 12 (p70 heterodimer of p35 and p40) (human, UniProt P29459 23-219; P29460 23-328); test: SPR (BIAcore), off-rate
T3 construct: Recombinant human IL-12; also called hIL-12; IL-12
T3 sequence (looked up) 1: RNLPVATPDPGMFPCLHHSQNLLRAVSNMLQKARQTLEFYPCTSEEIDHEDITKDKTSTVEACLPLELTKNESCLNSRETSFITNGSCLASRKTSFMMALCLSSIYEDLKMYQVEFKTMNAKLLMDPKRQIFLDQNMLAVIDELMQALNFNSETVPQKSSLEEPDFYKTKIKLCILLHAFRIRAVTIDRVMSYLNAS
T3 sequence (looked up) 2: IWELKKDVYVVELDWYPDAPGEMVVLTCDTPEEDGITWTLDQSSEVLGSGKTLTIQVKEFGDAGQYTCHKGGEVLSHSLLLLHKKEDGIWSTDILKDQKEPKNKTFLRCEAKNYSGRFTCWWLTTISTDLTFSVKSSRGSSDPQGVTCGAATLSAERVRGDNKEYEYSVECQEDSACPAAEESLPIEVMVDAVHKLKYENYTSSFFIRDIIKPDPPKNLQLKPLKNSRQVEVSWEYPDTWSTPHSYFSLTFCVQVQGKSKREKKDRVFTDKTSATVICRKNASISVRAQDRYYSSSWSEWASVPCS

[9] = target: T3, human interleukin 12 (p70 heterodimer …); test: SPR (BIAcore), off-rate; remark: listed apart in the source
[10] = target: T3, human interleukin 12 (p70 heterodimer …); test: SPR (BIAcore), off-rate; remark: listed apart in the source
[11] = target: T3, human interleukin 12 (p70 heterodimer …); test: surface plasmon resonance (BIAcore)
[12] = target: T3, human interleukin 12 (p70 heterodimer …); test: SPR (BIAcore), off-rate; remark: listed apart in the source
[13] = target: T3, human interleukin 12 (p70 heterodimer …); test: SPR (BIAcore), off-rate; remark: listed apart in the source
[14] = target: T3, human interleukin 12 (p70 heterodimer …); test: SPR (BIAcore), off-rate; remark: listed apart in the source
[15] = target: T3, human interleukin 12 (p70 heterodimer …); test: SPR (BIAcore), off-rate; remark: listed apart in the source

B1: 136-17 (antibody, V domains shown)
VH: QVQLVQSGGGVVQPGRSLRLSCAASGFTFSSYGMHWVRQAPGKGLEWVAFIRYDGSNKYYADSVKGRFTISRDNSKNTLYLQMKSLRAEDTAVYYCTTHGSHDNWGQGTMVTVSS
VL: SYVLTQPPSVSGTPGQRVTISCSGGRSNIGSNTVKWYQQLPGTAPKLLIYGNDQRPSGVPDRFSGSKSGTSASLAITGVQAEDEADYYCQSYDWNFTGSRVFGTGTKVTVL
- koff (human interleukin 12 [1]): 2.9e-05 s⁻¹
- IC50 (human interleukin 12 [2]): 2 nM
- PHA assay IC50 (human interleukin 12 [3]): 7 nM

B2: Y61 IgG (antibody, V domains shown)
VH: QVQLVQSGGGVVQPGRSLRLSCAASGFTFSSYGMHWVRQAPGKGLEWVAFIRYDGSNKYYADSVKGRFTISRDNSKNTLYLQMKSLRAEDTAVYYCKTHGSHDNWGQGTMVTVSS
VL: SYVLTQPPSVSGTPGQRVTISCSGGRSNIGSNTVKWYQQLPGTAPKLLIYGNDQRPSGVPDRFSGSKSGTSASLAITGVQAEDEADYYCQSYDRGTHPALLFGTGTKVTVLG
notes: IgG
- PHA assay IC50 (M) p70:p40 1:0 [4]: 1.8e-10 M
- PHA assay IC50 (M) p70:p40 1:50 [4]: 1.8e-10 M
- koff [5]: 0.00015 s⁻¹
- PHA assay IC50 [6]: 130 pM

B3: Y61-L94Y IgG (antibody, V domains shown)
VH: QVQLVQSGGGVVQPGRSLRLSCAASGFTFSSYGMHWVRQAPGKGLEWVAFIRYDGSNKYYADSVKGRFTISRDNSKNTLYLQMKSLRAEDTAVYYCKTHGSHDNWGQGTMVTVSS
VL: QSVLTQPPSVSGAPGQRVTISCSGSRSNIGSNTVKWYQQLPGTAPKLLIYGNDQRPSGVPDRFSGSKSGTSASLAITGLQAEDEADYYCQSYDRYTHPALLFGTGTKVTVL
- IC50 [7]: 0.06 nM
- koff [5]: 0.000127 s⁻¹
- IFN gamma IC50 [6]: 40 pM
- PHA assay IC50 [6]: 50 pM

B4: Y61-L50Y* IgG (antibody, V domains shown)
VH: QVQLVQSGGGVVQPGRSLRLSCAASGFTFSSYGMHWVRQAPGKGLEWVAFIRYDGSNKYYADSVKGRFTISRDNSKNTLYLQMKSLRAEDTAVYYCKTHGSHDNWGQGTMVTVSS
VL: QSVLTQPPSVSGAPGQRVTISCSGSRSNIGSNTVKWYQQLPGTAPKLLIYYNDQRPSGVPDRFSGSKSGTSASLAITGLQAEDEADYYCQSYDRGTHPALLFGTGTKVTVL
- koff [5]: 6.98e-05 s⁻¹
- IFN gamma IC50 [6]: 30 pM
- PHA assay IC50 [6]: 20 pM

B5: 136-15 (antibody, V domains shown)
VH: QVQLVQSGGGVVQPGRSLRLSCAASGFTFSSYGMHWVRQAPGKGLEWVAFIRYDGSNKYYADSVKGRFTISRDNSKNTLYLQMKSLRAEDTAVYYCKTHGSHDNWGQGTMVTVSS
VL: SYVLTQPPSVSGTPGQRVTISCSGSRSNIGSNTVKWYQQLPGTAPKLLIYGNDQRPSGVPDRFSGSKSGTSASLAITGVQAEDEADYYCQTYDKGFTGSSVFGTGTKVTVLG
- PHA assay IC50 (M) p70:p40 1:0 [4]: 2e-09 M

B6: Y61 human anti-hIL-12 antibody (antibody, V domains shown)
VH: QVQLVQSGGGVVQPGRSLRLSCAASGFTFSSYGMHWVRQAPGKGLEWVAFIRYDGSNKYYADSVKGRFTISRDNSKNTLYLQMKSLRAEDTAVYYCKTHGSHDNWGQGTMVTVSS
VL: SYVLTQPPSVSGTPGQRVTISCSGGRSNIGSNTVKWYQQLPGTAPKLLIYGNDQRPSGVPDRFSGSKSGTSASLAITGVQAEDEADYYCQSYDRGTHPALLFGTGTKVTVLG
- koff [8]: 0.000215 s⁻¹ and 0.000297 s⁻¹
- koff [9]: 0.000204 s⁻¹ and 0.000206 s⁻¹ and 0.000151 s⁻¹ and 0.000178 s⁻¹
- koff [10]: 0.000211 s⁻¹ and 0.000229 s⁻¹ and 0.000241 s⁻¹
- koff [11]: ~0.0002 s⁻¹
- koff [12]: 0.000168 s⁻¹ and 0.000337 s⁻¹ and 0.000178 s⁻¹
- koff [13]: 0.00031 s⁻¹ and 0.000385 s⁻¹
- koff [14]: 0.000403 s⁻¹
- koff [15]: 0.000397 s⁻¹ and 0.000375 s⁻¹ and 0.000255 s⁻¹ and 0.000143 s⁻¹

B7: J695 (Y61-L94Y-L50Y IgG*) (antibody, V domains shown)
VH: QVQLVESGGGVVQPGRSLRLSCAASGFTFSSYGMHWVRQAPGKGLEWVAFIRYDGSNKYYADSVKGRFTISRDNSKNTLYLQMNSLRAEDTAVYYCKTHGSHDNWGQGTMVTVSS
VL: QSVLTQPPSVSGAPGQRVTISCSGSRSNIGSNTVKWYQQLPGTAPKLLIYYNDQRPSGVPDRFSGSKSGTSASLAITGLQAEDEADYYCQSYDRYTHPALLFGTGTKVTVLG
notes: also called ABT-874
- koff [5]: 5.14e-05 s⁻¹
